Results published in the RNAGym collection of RNA variant scans (doi:10.1073/pnas.2313332121).

B1: TPR t1 (parent)
chain: GACCAAUCUGCCCUCAGAGCUCGAGAACAUCUUCGGAUGCAGAGGAGGCAGGCUUCGGUGGCGCGAUAGCGCCAACGUCCUCAACCUCCAAUGCAUCCCACCACAUGAUGAUGCCUGAAGAGCCUUGGUUUUUUG

Variants of: B1
Assay: polymerase ribozyme fitness, log enrichment relative to wild type (log ratio); higher = more active; in vitro selection for triplet polymerase activity
How it was run: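 After PCR construction and transcription, each subunit's mutant library from a heterodimeric triplet polymerase ribozyme was annealed with a biotinylated primer, the partner subunit and triplets. Incubation was frozen, at −7 °C, and extended constructs were gel-excised, bound to streptavidin beads and amplified by RT-PCR, in one selection round done in triplicate. Fitness is the logarithm of a genotype's enrichment divided by that of the wild type, from inverse-variance-weighted replicate averages of Illumina-sequenced inputs and outputs. The base of the logarithm is 2, and genotypes needed ≥10 input reads and ≥1 read per output.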

| Variant | polymerase ribozyme fitness (log ratio) |
| --- | --- |
| C8G C40A C49G G52U G120C U132A | 0.561 |
| C8G C12U C15U G25A A27U G42C G61A U78C U112A U125A U131A | -6.3 |
| C8G C22U G23A C123G | -7.38 |
| C8G C22G C76A G77A | -5.05 |
| C8G U21A G57C A108G U133C | -5.29 |
| C8G U132A | 0.53 |
| C8G C12G C114G | -2.57 |
| C8G C15U G39A C62G | -2.54 |
| C8U A16U G47A C101A C124U | -1.94 |
| C8G G36U C70U | 0.358 |
| C8G A27U G93U | -3.29 |
| C8G C20A | -1.49 |
| C8G C20U | -1.02 |
| C8U A27U C34U G48U G60A C98U U112C G117U | -7.25 |
| C8G A46C C97G C101A C114A U130C | -6.93 |
| C8G C72U | 0.18 |
| C8G C72G | 0.418 |
| C8G C86G C114A | 0.194 |
| C8G A66G C85A C114U | -3.3 |
| C8G G36C C56A C70U U96C A119U | -5 |
| C8G C70A U92G | -5.61 |

| Variant | polymerase ribozyme fitness (log ratio) |
| --- | --- |
| C8G C28G C64U U116G A121G | -2.9 |
| C8G C11A C72U C88U C97U G113U G127C | -4.01 |
| C8G C12U G51A U129G | -3.08 |
| C8G C56A C124G | 1.48 |
| C8U A16U A66U C72G G77U C123U | -1.74 |
| C8G G93A | -0.604 |
| C8G C22G C53U C70U A84C | -3.45 |
| C8G A29U G60A G77C | -2.46 |
| C8G C49G C82G A118U | 0.164 |
| C8G C20G G63C U109G | -3.93 |
| C8G C11G G36U | 0.581 |
| C8G C62A | -0.27 |
| C8G C62U | 0.179 |
| C8G C20U C40G A90U C102U | -6.69 |
| C8G A46G G110A | -0.456 |
| C8G A37U A74C C88G G110A | -3.12 |
| C8G C31G | -6.18 |
| C8G A18U C22G G117U | -2.97 |
| C8U A41G C64G | -6.15 |
| C8G U87A U96G G110U G122C U129C | -3.4 |
| C8G G19C C20U U21G U54C U87G | -4.85 |

| Variant | polymerase ribozyme fitness (log ratio) |
| --- | --- |
| C8G G69A | -1.5 |
| C8U A16U G36C G52U C97A | -2.9 |
| C8G C53G A66U G120U | 1.03 |
| C8G C13U G47C A74G | -0.735 |
| C8G G19U C94U | -2.66 |
| C8G C15A G63C | -0.139 |
| C8G C20U U81G | -4.46 |
| C8G C40A C89A G120A U132A | 0.693 |
| C8G G19A A46C G71A | -3.53 |
| C8G C11U U59A C62A G63U | -5.8 |
| C8G C82A | 0.946 |
| C8G C49U G127A | -1.03 |
| C8G C70A | -0.64 |
| C8G G36A | -0.023 |
| C8U A37G G52A C56U | -0.753 |
| C8G A83G U87C C101G | -1.58 |
| C8G G35C A90G | -2.66 |
| C8G G19A | -1.89 |
| C8G C40A C98U G127C | -2.67 |
| C8G G45A A84G C89U G117A | -2.7 |
| C8G A37U A90U G93C U132A | -2.23 |

| Variant | polymerase ribozyme fitness (log ratio) |
| --- | --- |
| C8G A18C C40U C72A C123G | 0.381 |
| C8G C22G G47A G77U | -4.32 |
| C8G U14C U32C G48A G52U A95U G110A | -4.18 |
| C8G A41G A83G G110U A121G | -3.81 |
| C8G G61A C72U G128C | -0.569 |
| C8U A27C C72U C80A | -6.42 |
| C8G C13G C40U U54G | 0.0381 |
| C8G G19C A75U C89G | -2.29 |
| C8G C82A A90U U92G G117U G120C | -1.01 |
| C8G G17C A29U U87G G120A | -2.2 |
| C8U A29G C94A U116G | -2.84 |
| C8G A16C C62A G71A G120C | -1.27 |
| C8G C31G C82A C124U | -6.38 |
| C8G C85U C86G | -0.513 |
| C8G C86G C89U G93A | -0.898 |
| C8G A26U G52A G63C | -4.29 |
| C8G G39A C79A C82A C85A C114U | -4.81 |
| C8G G36U G47A C72G U92G C115A | -6.07 |
| C8G U14G G36U C80U G120A | 1.03 |
| C8G C49G | 0.323 |
| C8G C13U C79A G117A U126A | -0.523 |
